The assay has as its target nascent chain-containing 60S ribosomal subunit (60S-RNC) (UniProt P35268).

Sequence of Listerin (O94822 whole entry): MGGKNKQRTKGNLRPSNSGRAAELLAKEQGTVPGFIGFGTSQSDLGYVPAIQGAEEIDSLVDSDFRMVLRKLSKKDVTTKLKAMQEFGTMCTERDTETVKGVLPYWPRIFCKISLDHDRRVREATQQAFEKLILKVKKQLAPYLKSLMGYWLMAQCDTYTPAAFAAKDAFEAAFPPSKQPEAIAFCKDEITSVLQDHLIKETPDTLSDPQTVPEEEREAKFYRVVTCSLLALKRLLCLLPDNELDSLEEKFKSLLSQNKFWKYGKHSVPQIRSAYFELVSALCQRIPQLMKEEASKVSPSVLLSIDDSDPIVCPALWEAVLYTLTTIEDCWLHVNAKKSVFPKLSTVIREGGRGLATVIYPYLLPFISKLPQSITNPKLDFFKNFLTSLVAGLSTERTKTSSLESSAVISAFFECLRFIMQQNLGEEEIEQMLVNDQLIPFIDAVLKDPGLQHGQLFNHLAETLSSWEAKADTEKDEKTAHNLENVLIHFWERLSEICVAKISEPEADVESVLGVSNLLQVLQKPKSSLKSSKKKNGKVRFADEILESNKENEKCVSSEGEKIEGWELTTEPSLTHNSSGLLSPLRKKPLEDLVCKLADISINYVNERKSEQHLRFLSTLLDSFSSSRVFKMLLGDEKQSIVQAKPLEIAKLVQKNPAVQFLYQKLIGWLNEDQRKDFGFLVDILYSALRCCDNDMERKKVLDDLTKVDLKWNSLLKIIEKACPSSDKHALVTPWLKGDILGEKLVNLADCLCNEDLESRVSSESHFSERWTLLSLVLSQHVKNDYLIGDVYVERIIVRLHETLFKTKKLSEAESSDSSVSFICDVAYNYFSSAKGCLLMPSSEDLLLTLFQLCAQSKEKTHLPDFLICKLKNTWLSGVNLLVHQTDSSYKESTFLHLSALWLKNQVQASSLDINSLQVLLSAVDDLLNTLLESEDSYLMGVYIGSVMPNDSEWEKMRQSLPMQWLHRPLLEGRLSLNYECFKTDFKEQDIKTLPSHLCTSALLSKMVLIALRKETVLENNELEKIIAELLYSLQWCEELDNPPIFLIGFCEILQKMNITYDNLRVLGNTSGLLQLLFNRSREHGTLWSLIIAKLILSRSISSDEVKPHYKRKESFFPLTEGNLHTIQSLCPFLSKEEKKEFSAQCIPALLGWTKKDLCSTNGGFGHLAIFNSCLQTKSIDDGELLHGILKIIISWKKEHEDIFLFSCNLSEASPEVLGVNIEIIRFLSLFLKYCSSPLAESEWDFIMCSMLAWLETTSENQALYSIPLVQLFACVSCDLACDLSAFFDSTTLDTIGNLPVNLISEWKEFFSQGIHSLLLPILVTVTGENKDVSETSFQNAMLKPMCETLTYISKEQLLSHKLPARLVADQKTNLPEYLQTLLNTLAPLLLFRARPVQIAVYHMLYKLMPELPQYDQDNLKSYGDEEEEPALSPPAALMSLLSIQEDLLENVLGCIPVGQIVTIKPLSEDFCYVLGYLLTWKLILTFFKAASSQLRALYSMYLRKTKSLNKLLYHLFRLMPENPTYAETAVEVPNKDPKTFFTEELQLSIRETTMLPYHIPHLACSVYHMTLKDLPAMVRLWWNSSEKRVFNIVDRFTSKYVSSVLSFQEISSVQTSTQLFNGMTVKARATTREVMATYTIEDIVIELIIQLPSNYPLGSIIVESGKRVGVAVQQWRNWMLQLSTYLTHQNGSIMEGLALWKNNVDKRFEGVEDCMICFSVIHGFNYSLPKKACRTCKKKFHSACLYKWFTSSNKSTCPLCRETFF

“Listerin (from UniProt O94822 1-1766) (enzyme)” registered a poly-ubiquitination of the nascent chain-tRNA, purified NEMF titrated into reactions with 5 nM 80S-RNCs and 1.2 nM Listerin, relative to no NEMF of 3 to 5 fold.
